Reference: patent US12590158 (XIYUAN ANJIAN MEDICINE SHANGHAI, dated 2026)
Positions count from the first letter of the chain named.

B1: anti-TrkA antibody 11G8 (antibody, V domains shown)
VH: QVQLQQPGAELVKPGASVKLSCKASGYTFTSYWMHWVKQRPGQGLEWIGEINPNNGLTNYDEKFKTKATLTIDKSSRTAYIQLSSLTSEDSAVYYCAKYGNYVAFAFWGQGTLVTVSA
VL: DIQMTQSPASLSATVGETVTITCRASENIYSYVAWYQQKQGKSPQLLVHNAKTLAEGVPSRFSGSGSGTQFSLKINGLHPEDFGSYYCQHHYGIPLTFGAGTKLELK
notes: Murine monoclonal antibody purified from hybridoma medium by protein G
B2: anti-TrkA antibody 33H5 (antibody, V domains shown)
VH: B1 VH with K19Q, M34I, D61I, T66N, R77N, I81M, S85G, S88P, F107Y
VL: B1 VL with T14S, E17D, S31T, V33L, A51T, N76S, G77S, H79Q, S85T, I94V
notes: as for B1
B3: anti-TrkA antibody 5A3 (antibody, V domains shown)
VH: QVQLQQSGAELMKPGASVKISCKAIGYTFSRYWIEWVKQRPGHGLEWIGEILPGRGVTNYNENFKGKATFTVDISSTTTYIQFSSLTSEDSAVYYCARSNYGDYDFWGQGTSLTVSS
VL: QTVVTQESALTTSPGETVTLTCRSSSGAVTTSNHANWVQEKPDHLFTSLMGGTNNRAPGVPARFSGSLIGDKAALTITGAQTEDEAIYFCALWYSNHWVFGGGTKLTVL
notes: as for B1
B4: anti-TrkA antibody 26E9 (antibody, V domains shown)
VH: QVQLQQPGAELVKPGASVKLSCKSSGYTFTNYWMHWVKQRPGQGLEWIGEIYPSNGRTNYNEKFKNRATLTVDISSSTAYMQLSSLTSEDSAVYYCARSRYDPMEDWGQGTSVTVSS
VL: QIVLTQSPAIMSASPGEKVTMTCSASSSVGYMHWYQQKSGTSPKRWIYDTSKLASGVPTRFSGSGSGTSYSLTISSMEAEDAATYYCQQWSSIPLTFGSGTKLEIK
notes: as for B1
B5: anti-TrkA antibody 42F5 (antibody, V domains shown)
VH: B4 VH with K38R, S54N, T58V
VL: B4 VL with I2V, Y86F, K102R
notes: as for B1
B6: humanized anti-TrkA antibody 42F5-15 (antibody, V domains shown)
VH: QVQLVQSGAEVKKPGASVKVSCKSSGYTFTNYWMHWVRQAPGQGLEWMGEIYPNNARVNYNEKFKNRVTMTVDISISTAYMELSRLRSDDTAVYYCARSRYDPMEDWGQGTTVTVSS
VL: DVQLTQSPSSLSASVGDRVTITCSASSSVGYMHWYQQKPGKAPKRLIYDTSKLASGVPSRFSGSGSGTDYTLTISSLQPEDFATYFCQQWSSIPLTFGQGTRLEIK
notes: 42F5-01 with NG55-56 of the VH mutated to NA55-56

The binders below were run against T1, full-length human TrkA expressed on cells (human, UniProt P04629 33-796) (assay: cell-based or functional assay).
T1 sequence (P04629 33-796): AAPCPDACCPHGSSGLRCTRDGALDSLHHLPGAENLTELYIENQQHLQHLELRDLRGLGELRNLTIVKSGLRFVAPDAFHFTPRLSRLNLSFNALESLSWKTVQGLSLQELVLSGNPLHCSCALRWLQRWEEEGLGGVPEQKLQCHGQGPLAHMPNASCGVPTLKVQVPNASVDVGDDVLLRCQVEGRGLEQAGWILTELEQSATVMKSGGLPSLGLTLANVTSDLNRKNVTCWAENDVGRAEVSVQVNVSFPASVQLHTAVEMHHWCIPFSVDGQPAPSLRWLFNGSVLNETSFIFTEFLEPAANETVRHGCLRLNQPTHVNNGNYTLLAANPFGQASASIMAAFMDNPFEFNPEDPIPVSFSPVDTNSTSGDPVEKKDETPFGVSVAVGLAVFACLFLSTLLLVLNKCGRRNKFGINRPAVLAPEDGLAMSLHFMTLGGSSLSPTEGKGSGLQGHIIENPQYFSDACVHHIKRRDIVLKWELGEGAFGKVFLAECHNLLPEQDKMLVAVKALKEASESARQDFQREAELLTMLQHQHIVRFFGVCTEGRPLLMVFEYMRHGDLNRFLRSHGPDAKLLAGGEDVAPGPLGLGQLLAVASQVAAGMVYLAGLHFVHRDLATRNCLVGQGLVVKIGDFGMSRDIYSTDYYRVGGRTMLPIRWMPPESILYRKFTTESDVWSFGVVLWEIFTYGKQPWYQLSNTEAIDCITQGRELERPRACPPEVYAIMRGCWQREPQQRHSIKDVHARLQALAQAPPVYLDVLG

Binder	inhibition of NGF-induced TrkA/Ba/F3 cell proliferation at 2.5 µg/mL (16.67 nM) or higher
B1	100%
B2	100%
B3	100%
B4	100%
B5	100%

Molecular target: T1, full-length human TrkA expressed on …
Experiment: cell-based or functional assay
Remark: another data set of the same source

Binder	IC50 of inhibiting NGF-induced TF-1 cell proliferation
B1	1.09 nM
B2	2.14 nM
B3	6.49 nM
B4	1.39 nM
B5	1.3 nM

Molecular target: T1, full-length human TrkA expressed on …
Experiment: cell-based or functional assay
Remark: another data set of the same source

Binder	IC50 of inhibiting NGF-induced TrkA/Ba/F3 cell proliferation
B1	1.65 nM
B2	0.413 nM
B3	0.422 nM
B4	1.54 nM
B5	1.25 nM

What follows are binders tested against fusion protein (fused to human Fc) containing only the portion of human TrkA extracellular region that binds NGF (TrkA 192-402) (ACROBiosystems TRA-H5258) (human) (UniProt P04629) (assay: ELISA, coated human TrkA (192-402)-hFc).
Sequence of fusion protein (fused to human Fc) containing only the portion of human TrkA extracellular region that binds NGF (TrkA 192-402) (ACROBiosystems TRA-H5258) (human) (P04629 192-402 limits assumed, form in doubt): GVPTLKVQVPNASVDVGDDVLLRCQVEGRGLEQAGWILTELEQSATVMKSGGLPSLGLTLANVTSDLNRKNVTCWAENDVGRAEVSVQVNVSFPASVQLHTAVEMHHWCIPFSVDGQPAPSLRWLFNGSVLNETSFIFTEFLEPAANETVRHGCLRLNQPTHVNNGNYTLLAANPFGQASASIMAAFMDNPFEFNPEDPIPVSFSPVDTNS

Binder	EC50
B1	0.071 nM
B2	0.173 nM
B3	0.154 nM
B4	0.068 nM
B5	0.134 nM

These binders were tested against T2, TrkA extracellular region (33-417) protein comprising human Fc (ACROBiosystems TRA-H5259) (human, UniProt P04629 33-417) (assay: ELISA, coated human TrkA (33-417)-hFc, anti-mouse Fc-HRP).
T2 construct: range 33-417; Bought fusion protein; also called human TrkA (33-417); human TrkA extracellular region
T2 sequence (P04629 33-417 limits assumed): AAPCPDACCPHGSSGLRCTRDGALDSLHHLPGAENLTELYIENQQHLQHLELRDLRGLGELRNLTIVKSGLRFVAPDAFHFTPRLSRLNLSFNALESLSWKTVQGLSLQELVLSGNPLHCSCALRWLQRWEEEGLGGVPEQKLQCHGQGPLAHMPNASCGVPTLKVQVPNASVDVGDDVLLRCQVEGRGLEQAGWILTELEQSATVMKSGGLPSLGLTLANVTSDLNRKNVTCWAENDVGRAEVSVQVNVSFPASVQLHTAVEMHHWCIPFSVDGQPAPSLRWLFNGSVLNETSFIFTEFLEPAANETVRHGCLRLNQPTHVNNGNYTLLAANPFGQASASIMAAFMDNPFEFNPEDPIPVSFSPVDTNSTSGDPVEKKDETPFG
Description: (§1) Example 2: ELISA Detection of the Binding of Murine Anti-TrkA Antibodies to Human TrkA The binding abilities of the anti-TrkA antibodies were detected by using a TrkA extracellular region (33-417) protein comprising human Fc (Beijing ACROBiosystems Co., Ltd., TRA-H5259). Each well of a 96-well microtiter plate was coated with 50 ng of human TrkA, washed and blocked, and then added with serially diluted antibodies, and incubated at room temperature for 1 hour. After washing three times, horseradish peroxidase-conjugated goat anti-mouse Fc antibody (Biolegend, 405306) was added and incubated at room temperature for 1 hour. After washing three time, tetramethylbenzidine (TMB, Biolegend, 421101) was added for color development. 1M HCl was used to terminate the color development, and the absorbance values were read at 450 nm with a microplate reader.

Binder	EC50
B1	0.114 nM
B2	0.204 nM
B3	0.242 nM
B4	0.099 nM
B5	0.128 nM

What follows are binders tested against T3, human TrkB expressed on CHO cells (TrkB/CHO, ThermoFisher K1491) (human, UniProt Q16620 32-822) (assay: flow cytometry on TrkB/CHO cells, FITC goat anti-human Fc).
T3 construct: whole, on cells
T3 sequence (Q16620 32-822): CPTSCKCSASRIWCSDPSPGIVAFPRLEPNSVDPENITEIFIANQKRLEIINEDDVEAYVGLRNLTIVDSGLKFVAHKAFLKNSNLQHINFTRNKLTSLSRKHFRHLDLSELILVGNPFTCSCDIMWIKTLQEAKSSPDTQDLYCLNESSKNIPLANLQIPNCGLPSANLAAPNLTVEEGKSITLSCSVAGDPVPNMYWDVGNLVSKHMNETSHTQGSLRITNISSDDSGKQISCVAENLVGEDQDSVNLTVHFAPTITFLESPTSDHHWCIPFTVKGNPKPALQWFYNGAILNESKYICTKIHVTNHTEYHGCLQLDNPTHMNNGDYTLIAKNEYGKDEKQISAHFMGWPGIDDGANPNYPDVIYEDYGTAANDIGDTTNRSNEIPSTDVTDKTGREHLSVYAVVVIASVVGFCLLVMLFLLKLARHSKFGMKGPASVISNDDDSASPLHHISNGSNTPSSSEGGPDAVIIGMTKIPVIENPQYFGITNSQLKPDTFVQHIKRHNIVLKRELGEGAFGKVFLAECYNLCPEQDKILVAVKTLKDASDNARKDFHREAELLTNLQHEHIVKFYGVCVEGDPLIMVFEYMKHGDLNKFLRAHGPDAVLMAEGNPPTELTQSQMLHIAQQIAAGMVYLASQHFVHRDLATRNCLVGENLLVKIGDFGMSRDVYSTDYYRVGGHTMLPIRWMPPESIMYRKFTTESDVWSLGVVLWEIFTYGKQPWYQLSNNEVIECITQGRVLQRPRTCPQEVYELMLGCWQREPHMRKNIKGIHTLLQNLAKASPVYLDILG
Description: (§2) CHO-K1 was used as a negative control. The binding of the humanized antibodies to the four cell lines was detected by flow cytometry.
(§3) The cells were cultured according to the manufacturer's instruction. The cells were harvested in the logarithmic growth phase, re-suspended in flow buffer (PBS+2% FBS, pH 7.4), and added into 96-well plate, 10^5 cells per well (50 µl). 50 µl of 100 µg/mL humanized anti-TrkA antibody was added, incubated at room temperature for 60 min, and centrifuged at 1200 rpm. The supernatant was discarded and the cells were washed 3 times. FITC-labeled goat anti-human Fc antibody (Abeam, ab97224) was diluted to 5 µg/mL with flow buffer and used to re-suspend the cells, incubated at room temperature for 30 min in the dark, centrifuged, and the supernatant was discarded. After washing 3 times, the cells were re-suspended with 7AAD solution (Biolegend, 420403), incubated for 10 min at room temperature, and the binding of the antibody was detected with a flow cytometer (BioRad, ZE5).

Binder	binding result
B6	no binding

The binders below were run against T4, human TrkC expressed on CHO cells (TrkC/CHO, ThermoFisher K1515) (human, UniProt Q16288 32-839) (assay: flow cytometry on TrkC/CHO cells, FITC goat anti-human Fc).
T4 construct: whole, on cells
T4 sequence (Q16288 32-839): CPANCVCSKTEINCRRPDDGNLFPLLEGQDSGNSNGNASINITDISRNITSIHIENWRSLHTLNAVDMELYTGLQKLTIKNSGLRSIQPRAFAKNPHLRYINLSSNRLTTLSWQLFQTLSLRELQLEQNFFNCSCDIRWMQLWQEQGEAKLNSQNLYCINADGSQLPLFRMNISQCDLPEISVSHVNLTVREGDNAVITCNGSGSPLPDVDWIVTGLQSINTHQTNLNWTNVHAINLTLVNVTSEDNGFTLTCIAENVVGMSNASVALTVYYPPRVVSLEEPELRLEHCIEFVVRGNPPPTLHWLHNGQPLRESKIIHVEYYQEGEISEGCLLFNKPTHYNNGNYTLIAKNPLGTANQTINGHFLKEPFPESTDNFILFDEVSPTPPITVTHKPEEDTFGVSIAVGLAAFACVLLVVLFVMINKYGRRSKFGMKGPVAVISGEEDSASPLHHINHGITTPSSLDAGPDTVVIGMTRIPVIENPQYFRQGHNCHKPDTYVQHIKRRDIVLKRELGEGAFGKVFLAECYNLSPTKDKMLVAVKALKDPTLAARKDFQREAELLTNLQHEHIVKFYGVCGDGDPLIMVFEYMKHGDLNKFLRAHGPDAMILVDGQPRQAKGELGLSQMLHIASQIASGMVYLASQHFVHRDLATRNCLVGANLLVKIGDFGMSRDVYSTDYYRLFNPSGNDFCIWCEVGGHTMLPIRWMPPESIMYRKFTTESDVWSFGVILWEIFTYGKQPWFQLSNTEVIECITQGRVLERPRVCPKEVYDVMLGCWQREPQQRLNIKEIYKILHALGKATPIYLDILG
Description: as §2, §3

Binder	binding result
B6	no binding

Each binder was assayed against T5, rat TrkA extracellular region fusion protein (fused to human Fc) (Yiqiao Shenzhou 80243-R03H) (rat, UniProt P35739 33-418) (assay: ELISA, plate coated with rat TrkA extracellular region-hFc, HRP goat anti-mouse Fc detection).
T5 construct: extracellular domain; Bought fusion protein
T5 sequence (P35739 33-418, stated change not applied): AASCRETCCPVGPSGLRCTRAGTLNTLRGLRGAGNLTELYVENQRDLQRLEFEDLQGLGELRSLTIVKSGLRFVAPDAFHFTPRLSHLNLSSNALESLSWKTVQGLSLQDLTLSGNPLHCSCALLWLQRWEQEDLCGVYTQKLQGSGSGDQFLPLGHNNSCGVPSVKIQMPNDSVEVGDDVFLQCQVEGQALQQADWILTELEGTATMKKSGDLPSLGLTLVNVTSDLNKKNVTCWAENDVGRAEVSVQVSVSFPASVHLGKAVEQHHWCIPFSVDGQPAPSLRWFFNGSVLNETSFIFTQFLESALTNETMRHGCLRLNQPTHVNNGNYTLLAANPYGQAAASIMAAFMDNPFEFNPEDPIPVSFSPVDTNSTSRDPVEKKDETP
Description: as §1
(§4) In addition, the species cross-reactivities of anti-TrkA antibodies were detected with monkey TrkA (Hangzhou Haoyang Biotechnology Co., Ltd., HSP037-05), rat TrkA (Beijing Yiqiao Shenzhou Technology Co., Ltd., 80243-R03H), mouse TrkA (Beijing Yiqiao Shenzhou Technology Co., Ltd., 51103-M02H) extracellular region fusion protein (fused to human Fc).

Binder	binding result
B1	binds
B2	binds
B3	binds
B4	binds
B5	binds

The binders below were run against T2, TrkA extracellular region (33-417) … (assay: competition ELISA, coated TrkA (33-417)-hFc, antibody titrated, competitor biotin-labeled human NGF).
Description: Each well of a 96-well microtiter plate was coated with 50 ng of TrkA extracellular region (33-417) protein fused to human Fc, washed three times and blocked with 3% BSA for 1 hour. […] Each well was added with 100 μl and incubated at room temperature for 30 minutes. […] Streptavidin-labeled horseradish peroxidase (Streptavidin-HRP, Biolegend, 405210) was added and incubated for 0.5 hours. After washing three times, TMB was added to the plate, and the absorbance at 450 nm was read by a microplate reader after the color development was terminated.

Binder	IC50
B1	1.9 nM
B2	1.5 nM
B3	1.76 nM
B4	2.04 nM
B5	2.35 nM

These binders were tested against T2, TrkA extracellular region (33-417) … (assay: BLI (ForteBio Octet Red96), TrkA (33-417)-hFc captured on anti-human Fc sensor, antibody in solution).
Description: Example 3: Affinity Assay of Murine Anti-TrkA Antibodies Binding to Human TrkA The affinities of the antibodies were detected with Biomolecular Interaction Detection Platform (ForteBio Octet Red96 (PALL)).
Human TrkA extracellular region (33-417) protein containing human Fc tag was fixed onto a chip by using an anti-human Fc capture sensor (Fortebio, 18-5088), and then bound to gradient concentrations of anti-TrkA antibody.

Binder	Kd	koff	kon
B1	< 0.001 nM	< 1e-07 s⁻¹	992000 M⁻¹ s⁻¹
B2	0.0162 nM	2.09e-05 s⁻¹	1.29e+06 M⁻¹ s⁻¹
B3	0.0155 nM	1.88e-05 s⁻¹	1.21e+06 M⁻¹ s⁻¹
B4	0.0267 nM	2.46e-05 s⁻¹	923000 M⁻¹ s⁻¹
B5	0.00218 nM	2.07e-06 s⁻¹	947000 M⁻¹ s⁻¹

Each binder was assayed against T6, mouse TrkA extracellular region fusion protein (fused to human Fc) (Yiqiao Shenzhou 51103-M02H) (mouse, UniProt Q3UFB7 34-420) (assay: ELISA, plate coated with mouse TrkA extracellular region-hFc, HRP goat anti-mouse Fc detection).
T6 construct: extracellular domain; Bought fusion protein
T6 sequence (Q3UFB7 34-420, stated change not applied): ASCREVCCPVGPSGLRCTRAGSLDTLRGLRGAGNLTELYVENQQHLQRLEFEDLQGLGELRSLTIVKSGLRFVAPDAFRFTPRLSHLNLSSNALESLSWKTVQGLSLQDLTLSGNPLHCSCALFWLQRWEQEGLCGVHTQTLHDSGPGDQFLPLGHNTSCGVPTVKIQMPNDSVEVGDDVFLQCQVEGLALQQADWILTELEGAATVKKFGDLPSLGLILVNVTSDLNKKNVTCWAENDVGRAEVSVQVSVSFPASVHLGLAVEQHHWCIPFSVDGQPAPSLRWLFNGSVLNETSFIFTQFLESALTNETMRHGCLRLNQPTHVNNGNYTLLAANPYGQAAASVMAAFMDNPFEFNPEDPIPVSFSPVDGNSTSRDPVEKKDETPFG
Description: as §1, §4

Binder	binding result
B1	binds
B2	binds
B3	binds
B4	binds
B5	binds

Each binder was assayed against T7, human TrkB extracellular region protein (Yiqiao Shenzhou 10047-H03H) (human, UniProt Q16620 32-430) (assay: ELISA, plate coated with human TrkB extracellular region protein, HRP goat anti-mouse Fc detection).
T7 construct: extracellular domain; Bought protein
T7 sequence (Q16620 32-430): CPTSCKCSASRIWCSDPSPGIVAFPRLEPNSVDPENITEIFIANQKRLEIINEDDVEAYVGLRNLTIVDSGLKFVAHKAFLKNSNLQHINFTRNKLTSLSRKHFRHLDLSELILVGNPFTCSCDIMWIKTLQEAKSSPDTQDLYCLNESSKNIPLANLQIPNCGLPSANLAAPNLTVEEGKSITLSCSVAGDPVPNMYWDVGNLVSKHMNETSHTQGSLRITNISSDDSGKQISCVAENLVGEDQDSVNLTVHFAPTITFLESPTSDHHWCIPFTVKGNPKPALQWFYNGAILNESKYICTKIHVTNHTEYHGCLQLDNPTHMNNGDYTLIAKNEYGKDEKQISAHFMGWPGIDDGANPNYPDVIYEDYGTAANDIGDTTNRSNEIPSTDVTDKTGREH
Description: as §1
(§5) Example 7: Detection of the Binding of Murine Anti-TrkA Antibodies to TrkA Proteins of the Same Family Each well of a 96-well microtiter plate was coated with 50 ng of human TrkA extracellular region protein, human TrkB extracellular region protein (Beijing Yiqiao Shenzhou Technology Co., Ltd., 10047-H03H), human TrkC extracellular region protein (Beijing Yiqiao Shenzhou Technology Co., Ltd., 10048-H03H). The bindings of the anti-TrkA antibodies to human TrkA and the two proteins of the same family were detected according to the method described in Example 2.

Binder	binding result
B1	no binding (tested: 66.67 nM)
B2	no binding (tested: 66.67 nM)
B3	no binding (tested: 66.67 nM)
B4	no binding (tested: 66.67 nM)
B5	no binding (tested: 66.67 nM)

The binders below were run against T8, human TrkC extracellular region protein (Yiqiao Shenzhou 10048-H03H) (human, UniProt Q16288 32-429) (assay: ELISA, plate coated with human TrkC extracellular region protein, HRP goat anti-mouse Fc detection).
T8 construct: extracellular domain; Bought protein
Description: as §1, §5

Binder	binding result
B1	no binding (tested: 66.67 nM)
B2	no binding (tested: 66.67 nM)
B3	no binding (tested: 66.67 nM)
B4	no binding (tested: 66.67 nM)
B5	no binding (tested: 66.67 nM)
